Reference: patent US5652133A, “Cloning and expression of the human macrophage inflammatory protein-1.alpha . α) /rantes receptor” (The United States of America as represented by the …, priority 1993, dated 1997)

Experiments:
[1] = molecular target: T1, MIP-1α/RANTES receptor (Homo sapiens, UniProt P32246); assay: Calcium efflux assay in Xenopus oocytes injected with MIP-1α/RANTES receptor cRNA; format: cell-based; details: for responsiveness of cRNA-injected oocytes to ligand (calcium efflux): oocytes injected with 10 ng receptor cRNA, IL-8, GRO-α, NAP-2 at 500 nM, MIP-1α/MIP-1β Sf9 supernatant 1:5, panel C ligands at 250 nM
T1 construct: I.D. No. 1; expressed in transfected cells; host or cells: Xenopus laevis oocytes microinjected with receptor cRNA
T1 sequence (P32246 1-355): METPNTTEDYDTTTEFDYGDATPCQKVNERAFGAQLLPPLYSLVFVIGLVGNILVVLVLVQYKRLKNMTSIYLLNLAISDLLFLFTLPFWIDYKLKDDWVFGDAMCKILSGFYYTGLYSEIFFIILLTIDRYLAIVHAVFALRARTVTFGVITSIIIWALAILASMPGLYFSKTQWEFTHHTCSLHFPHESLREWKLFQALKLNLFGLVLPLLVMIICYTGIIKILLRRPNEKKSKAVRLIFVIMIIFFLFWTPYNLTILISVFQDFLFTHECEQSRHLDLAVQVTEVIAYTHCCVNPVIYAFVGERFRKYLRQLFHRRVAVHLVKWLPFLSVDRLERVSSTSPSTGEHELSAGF
Procedure: (§1) The materials and methods used for the calcium efflux assay were as described in Murphy, et al., J. Immunol. 145:2227-2234 (1990). Adult female laboratory bred Xenopus laevis (Nasco, Fort Atkinson, Wis.) were maintained at 19° C. to 22° C. in a light-dark cycle of 12 h per phase. The frogs were anesthetized and ovarian lobes were resected and defolliculated in OR2 solution (82.5 mM NaCl, 1 mM MgCl2, 2.4 mM KCl, 5 mM HEPES, pH 7.5) containing 2 mg/ml collagenase for 2 h on a rotary shaker. Stage V-VI oocytes were transferred to ND96 solution (96 mM NaCl, 2 mM KCl, 1.8 mM CaCl2, 1 mM MgCl2, 2.4 mM sodium pyruvate, penicillin 100 U/ml, streptomycin 100 μg/ml, 5 mM HEPES, pH 7.4 to 7.5).
(§2) After 1-2 days, oocytes were microinjected with RNA samples in a total volume of 50 nl per oocyte and were then incubated in ND96 solution at 20° C. to 23° C. for 3 to 5 days. Oocytes were then incubated in 500 μl of OR2 medium containing ^45 Ca^2+ [50 μCi/ml (ICN Biomedicals, Costa Mesa, Calif.)] for 3 hours at 20° C. After ten washes with ND96 medium, individual oocytes were stimulated with ligand in wells of a 96-well tissue culture plate containing 100 μl of ND96 medium. Three 100 μl samples of the incubation medium were collected and analyzed by liquid scintillation counting: a) the final 100 μl wash (20 min) before application of ligand; b) fluid containing the stimulus, removed after a 20 min incubation with the oocyte; and c) the oocyte solubilized in SDS (1%) in medium 20 min after stimulation. Data are presented as the mean±standard error of the mean (SEM) of the percent of loaded ^45 Ca^2+ that was released by individual oocytes in response to the stimulus, or [(b-a).div.(b+c)]×100.
Ligands were all human recombinant material obtained from the following sources: MIP-1α (R and D Systems, Minneapolis, Minn.); IL-8, RANTES, and MCAF (Genzyme, Cambridge, Mass.); NAP-2 (Bachem Bioscience, Philadelphia, Pa.); GRO-α (a gift from M. P. Beckmann, S. Lyman and D. Cerretti). MIP-1α and MIP-1β used in a ligand screen was a gift of U. Siebenlist (NIAID, Bethesda, Md.) and were used as a diluted supernatant of Sf9 insect cells expressing immunoreactive recombinant human MIP-1α (from clone pAT464) or MIP-1β (from clone pAT744) that was prepared as described in Zipfel et al. J. Immunol. 142:1582-1590 (1989) and Zipfel et al. Lymph. Cyto. Res. 11:141-148 (1992). All proteins were diluted from aqueous stock solutions or culture supernatants into ND96 oocyte media (96 mM NaCl, […], pH 7.45) containing 0.1% bovine serum albumin.
Five days after injection with 10 ng of either MIP-1α/RANTES receptor cRNA (closed bars) or IL-8 receptor B cRNA (open bars), oocytes were stimulated with recombinant human IL-8, GRO-α or NAP-2 at 500 nM, or a 1:5 dilution of an Sf9 supernatant containing recombinant human MIP-1α or MIP-1β. […] Oocytes injected with 50 ng HL-60 RNA (closed circle) or 10 ng of MIP-1α/RANTES receptor cRNA (open circle) were stimulated with the indicated concentration of recombinant human MIP-1α. […] Oocytes were injected with either HL-60 RNA (open bars) or MIP-1α/RANTES receptor cRNA (closed bars) and stimulated with the indicated ligand at 250 nM. In panels A-C, the data derive from 5-8 replicate determinations per point.

[2] = test system: IL-8 receptor B; assay: Calcium efflux assay in Xenopus oocytes injected with IL-8 receptor B cRNA; format: cell-based, human; details: oocytes injected with 10 ng IL-8 receptor B cRNA; 1:5 dilution of Sf9 supernatant
Procedure: as §1
as §2, with “After ten washes with ND96 medium, individual oocytes were stimulated with ligand in wells of a 96-well tissue culture plate containing 100 μl of ND96 medium.” left out, “Data are presented as the mean±standard error of the mean (SEM) of the percent of loaded ^45 Ca^2+ that was released by individual oocytes in response to the stimulus, or [(b-a).div.(b+c)]×100.” left out

[3] = test system: IL-8 receptor B; assay: Radioligand binding of 125I-MIP-1α to oocytes expressing IL-8 receptor B; parameters: species or system human; details: single oocytes, 30 min on ice
[4] = molecular target: T1, MIP-1α/RANTES receptor; assay: Radioligand binding of 125I-MIP-1α to oocytes injected with MIP-1α/RANTES receptor cRNA
Procedure: Carrier free recombinant human MIP-1α 10 μg (Genzyme, Cambridge, Mass.) was labeled using 5 mCi Na^125 I (Amersham, Arlington Heights, Ill.) in 100 μl 0.2M sodium phosphate, pH 7.2 and 50 μl reconstituted Enzymobeads (BioRad, Richmond, AC). The reaction was started using 25 μl 1% β-D-glucose and allowed to continue for 20 minutes. Labeled sample was separated from the free iodine using a NAP-5 column (Pharmacia LKB, Piscataway, N.J.) which had been previously rinsed with 1% bovine serum albumin in 0.2M sodium phosphate, pH 7.2. Labeled material was collected from the column and analyzed on a 14% acrylamide gel. Single oocytes were incubated with ^125 I-MIP-1α for 30 min on ice in 10 μl of binding buffer (Hanks' balanced salt solution with 25 mM HEPES, 1% bovine serum albumin, pH 7.4). Unbound ligand was removed by centrifugation of the oocyte through 300 μl of F50 silicone fluid (General Electric, Waterford, N.Y.). The tubes were quickly frozen and gamma emissions from the amputated tips were counted.
Binding of ^125 I-labeled MIP-1α to oocytes injected with MIP-1α/RANTES receptor cRNA. (A) Total (closed circles) and non-specific binding (open circles) was determined by incubating oocytes injected with MIP-1α/RANTES receptor cRNA with the indicated concentration of ^125 I-labeled MIP-1α in the absence or presence of a 100 fold molar excess of unlabeled MIP-1α, respectively. […]

Q: With `Nc1ncnc2c1ncn2[C@@H]1O[C@H](COP(=O)(O)OP(=O)(O)OP(=O)(O)O)[C@@H](O)[C@H]1O` [ATP, reference compound] as the molecule, how does the “responsiveness of cRNA-injected oocytes to ligand (calcium efflux)” value (shortened to “responsiveness … (calcium efflux)”) [1] read?
A: inactive

Q: With `CCCCC[C@H](O)/C=C/[C@H]1[C@H](O)CC(=O)[C@@H]1C/C=C\CCCC(=O)O` [Prostaglandin E2, reference compound] as the molecule, how does the “responsiveness … (calcium efflux)” value [1] read?
A: inactive

Q: With `O=c1ccn([C@@H]2O[C@H](COP(=O)(O)OP(=O)(O)OP(=O)(O)O)[C@@H](O)[C@H]2O)c(=O)[nH]1` [UTP, reference compound] as the molecule, how does the “responsiveness … (calcium efflux)” value [1] read?
A: inactive

Q: `CSCC[C@H](NC=O)C(=O)N[C@@H](CC(C)C)C(=O)N[C@@H](Cc1ccccc1)C(=O)O` [f-met-leu-phe, reference compound] was tested. Which “responsiveness … (calcium efflux)” value [1] did it give?
A: inactive

Q: How did the “responsiveness … (calcium efflux)” value [1] turn out when `NCCc1c[nH]cn1` [histamine, reference compound] was run?
A: inactive

Q: How did the “responsiveness … (calcium efflux)” value [1] turn out when `CCCCCCCCCCCCCCCCOCC(COP(=O)([O-])OCC[N+](C)(C)C)OC(C)=O` (stereo not shown) [platelet activating factor, reference compound] was run?
A: inactive

Q: For “GROα: recombinant human GROα/melanoma growth stimulatory activity, α chemokine”, which “responsiveness … (calcium efflux)” value [1] is on record?
A: not

Q: How did the “responsiveness … (calcium efflux)” value [1] turn out when “IL-8: recombinant human interleukin-8, α chemokine (Genzyme)” was run?
A: not

Q: For “MCP-1: human recombinant Monocyte Chemoattractant Protein-1 (MCAF, Genzyme)”, which “responsiveness … (calcium efflux)” value [1] is on record?
A: not

Q: How did the “activation of IL-8 receptor B (calcium efflux)” value [2] turn out when “MIP-1α: recombinant human Macrophage Inflammatory Protein-1α, β chemokine (R and D Systems; or Sf9 supernatant)” was run?
A: Neither MIPα nor MIP-1β activated

Q: What about the “concentration at which the first phase of the oocyte response appeared to saturate” value ([1]; calcium efflux, first phase) of the same molecule?
A: ~100 NM

Q: What about the “concentration at which the second phase of the oocyte response did not reach a plateau” value ([1]; calcium efflux, second phase) of the same molecule?
A: > 5 µM

Q: What about the “responsiveness … (calcium efflux)” value [1] of the same molecule?
A: acquired responsiveness

Q: Which EC50 ([1]; calcium efflux, oocytes injected with receptor cRNA) does the source give for “RANTES: recombinant human β chemokine, Regulated on Activation, Normal T Expressed and Secreted (Genzyme)” here?
A: ~0.05 µM

Q: What about the “responsiveness … (calcium efflux)” value [1] of the same molecule?
A: acquired responsiveness

Q: For “^125 I-MIP-1α: carrier free recombinant human MIP-1α (Genzyme) labeled with Na125I”, which “specific binding to oocytes expressing IL-8 receptor B” value [3] is on record?
A: did not bind specifically

Q: What about the “specific binding to oocytes expressing IL-8 receptor B” value ([3]; listed as 125 I-labeled MIP-1α) of the same molecule?
A: undetectable

Q: And the “threshold for detection of specific binding” value [4]?
A: the same as that required for stimulation of calcium efflux

B1: NAP-2: recombinant human neutrophil activating peptide-2 (Bachem Bioscience) (protein, UniProt P02775 59-128, looked up)
Neutrophil-activating peptide …: AELRCMCIKTTSGIHPKNIQSLEVIGKGTHCNQVEVIATLKDGRKICLDPDAPRIKKIVQKKLAGDESAD
modifications: Neutrophil-activating peptide 2
Q: With B1 as the molecule, how does the “responsiveness … (calcium efflux)” value [1] read?
A: not

B2: C5a: C5a, ligand tested in the oocyte calcium efflux screen (protein, UniProt P01031 678-751, looked up)
C5a anaphylatoxin: TLQKKIEEIAAKYKHSVVKKCCYDGACVNNDETCEQRAARISLGPRCIKAFTECCVVASQLRANISHKDMQLGR
modifications: C5a anaphylatoxin
notes: C5a, ligand tested in the oocyte calcium efflux screen
Q: Which “responsiveness … (calcium efflux)” value [1] does the source give for B2 here?
A: inactive

B3: MIP-1β: recombinant human MIP-1β, diluted supernatant of Sf9 insect cells (clone pAT744) (protein, UniProt P13236 24-92, looked up)
C-C motif chemokine 4: APMGSDPPTACCFSYTARKLPRNFVVDYYETSSLCSQPAVVFQTKRSKQVCADPSESWVQEYVYDLELN
Q: What does the source list for B3?
A: activation of IL-8 receptor B (calcium efflux) [2]: Neither MIPα nor MIP-1β activated; responsiveness of cRNA-injected oocytes to ligand (calcium efflux) [1]: not
